Measurements as given in US6887468B1 (Board of Regents, The University of Texas System, priority 1999, dated 2005).

B1: (Biotinylated 6-His) endostatin: mouse endostatin with N-terminal 6×histidine tag expressed in E. coli, biotinylated (protein, UniProt P39060 1572-1754, looked up)
Endostatin: HSHRDFQPVLHLVALNSPLSGGMRGIRGADFQCFQQARAVGLAGTFRAFLSSRLQDLYSIVRRADRAAVPIVNLKDELLFPSWEALFSGSEGPLKPGARIFSFDGKDVLRHPTWPQKSVWHGSDPNGRRLTESYCETWRTEAPSATGQASSLLGGRLLGQSAASCHHAYIVLCIENSFMTASK
modifications: Endostatin biotin label, His6 tag
B2: 6-His GUS: E. coli β-glucuronidase with N-terminal 6×histidine tag (protein, UniProt P05804 1-603, looked up)
Beta-glucuronidase: MLRPVETPTREIKKLDGLWAFSLDRENCGIDQRWWESALQESRAIAVPGSFNDQFADADIRNYAGNVWYQREVFIPKGWAGQRIVLRFDAVTHYGKVWVNNQEVMEHQGGYTPFEADVTPYVIAGKSVRITVCVNNELNWQTIPPGMVITDENGKKKQSYFHDFFNYAGIHRSVMLYTTPNTWVDDITVVTHVAQDCNHASVDWQVVANGDVSVELRDADQQVVATGQGTSGTLQVVNPHLWQPGEGYLYELCVTAKSQTECDIYPLRVGIRSVAVKGEQFLINHKPFYFTGFGRHEDADLRGKGFDNVLMVHDHALMDWIGANSYRTSHYPYAEEMLDWADEHGIVVIDETAAVGFNLSLGIGFEAGNKPKELYSEEAVNGETQQAHLQAIKELIARDKNHPSVVMWSIANEPDTRPQGAREYFAPLAEATRKLDPTRPITCVNVMFCDAHTDTISDLFDVLCLNRYYGWYVQSGDLETAEKVLEKELLAWQEKLHQPIIITEYGVDTLAGLHSMYTDMWSEEYQCAWLDMYHRVFDRVSAVVGEQVWNFADFATSQGILRVGGNKKGIFTRDRKPKSAAFLLQKRWTGMNFGEKPQQGGKQ
modifications: His6 tag

How the values were obtained:
[1] = system: Bend3 mouse endothelial cells; ABAE, bovine aortic endothelial cells; HUVEC, human umbilical vein endothelial cells; assay: Direct binding of biotinylated 6-His endostatin to endothelial cells in vitro; type: cell-based; conditions: three endothelial cell types
From the text: Binding was detected using streptavidin-peroxidase in conjunction with O-phenylenediamine (OPD) and the absorbance read at 490 nm.

[2] = GUS enzymatic activity (cleavage of substrate); type: biochemical
From the text: The 6-His GUS was pure based upon SDS-PAGE, where it ran as a single band of 75 kDa band. On gel filtration columns, the 6-His GUS runs as a tetramer of about 300 kDa.
The biological activity of each component of the 2C3-GUS conjugate was confirmed.

Row | Molecule | Binding to endothelial cells in vitro [1] | Enzymatic activity of GUS [2]
1 | B1 | bound in a saturable fashion | 
2 | B2 |  | enzymatically active
